According to PMC6267192:

Target: TLR2 (human (endogenous in BEAS-2B)) (UniProt O60603)
Chain of UniProt O60603 (O60603 21-784): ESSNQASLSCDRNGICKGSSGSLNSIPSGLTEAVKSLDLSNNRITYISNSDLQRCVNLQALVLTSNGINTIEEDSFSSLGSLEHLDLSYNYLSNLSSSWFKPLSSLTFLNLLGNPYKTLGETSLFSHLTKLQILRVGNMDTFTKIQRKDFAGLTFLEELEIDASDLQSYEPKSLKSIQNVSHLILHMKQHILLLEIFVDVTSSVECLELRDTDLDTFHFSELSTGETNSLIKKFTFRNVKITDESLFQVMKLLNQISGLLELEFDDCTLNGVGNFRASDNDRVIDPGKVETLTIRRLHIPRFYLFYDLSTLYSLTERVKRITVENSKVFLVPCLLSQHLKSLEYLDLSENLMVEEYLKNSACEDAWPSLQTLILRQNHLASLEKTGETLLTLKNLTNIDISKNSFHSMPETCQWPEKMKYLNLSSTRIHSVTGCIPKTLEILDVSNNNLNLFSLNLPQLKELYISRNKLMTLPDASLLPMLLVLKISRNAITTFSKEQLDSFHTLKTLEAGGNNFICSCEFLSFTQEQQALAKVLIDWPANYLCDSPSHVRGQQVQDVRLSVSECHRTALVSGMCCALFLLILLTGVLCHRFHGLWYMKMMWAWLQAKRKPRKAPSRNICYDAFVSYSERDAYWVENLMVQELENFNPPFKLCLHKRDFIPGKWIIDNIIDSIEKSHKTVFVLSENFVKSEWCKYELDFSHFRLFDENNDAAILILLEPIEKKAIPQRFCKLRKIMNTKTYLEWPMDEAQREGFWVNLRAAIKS

recombinant Der p 2 variant 2.0110 (from UniProt P49278 18-146) (natural protein)
IL-8 release from BEAS-2B cells, allergen at 25 µg/mL, 24 hours: 310 pg/mL

Der p 2.0110 S47W (natural protein)
IL-8 release from BEAS-2B cells, allergen at 25 µg/mL, 24 hours: 157 pg/mL
